In one assay the test system is SW480 cells. In words: Immunofluorescence localization in SW480 cells (Example 1). As to conditions: transfected SW480 cells, FIG. 6B. Type of assay: cell-based, human. From the text:
(§1) Immunofluorescence microscopy: Cells cultured on glass coverslips were fixed with 3% paraformaldehyde in phosphate-buffered saline (PBS) and permeabilized with 0.5% Triton X-100. CHO cells were immunofluorescently labeled as described (Levenberg S. et al. (1998) Long-range and selective autoregulation of cell-cell and cell-matrix adhesions by cadherin or integrin ligands. J. Cell Sci. 111:347-357). Nuclei were visualized using DAPI and the fluorescence was examined using a Zeiss Axiophot microscope and a x100/1.3 Planapochromat objective.

The target in assay [1] is T1, β-catenin (Cricetulus griseus, UniProt G3H996).
T1 construct: resulting from the stabilization of the endogenous β-catenin by the transfected cadherin derivatives; endogenous in cells; host or cells: CHO cells, stably or transiently transfected with cadherin derivatives only
T1 sequence (G3H996 1-781): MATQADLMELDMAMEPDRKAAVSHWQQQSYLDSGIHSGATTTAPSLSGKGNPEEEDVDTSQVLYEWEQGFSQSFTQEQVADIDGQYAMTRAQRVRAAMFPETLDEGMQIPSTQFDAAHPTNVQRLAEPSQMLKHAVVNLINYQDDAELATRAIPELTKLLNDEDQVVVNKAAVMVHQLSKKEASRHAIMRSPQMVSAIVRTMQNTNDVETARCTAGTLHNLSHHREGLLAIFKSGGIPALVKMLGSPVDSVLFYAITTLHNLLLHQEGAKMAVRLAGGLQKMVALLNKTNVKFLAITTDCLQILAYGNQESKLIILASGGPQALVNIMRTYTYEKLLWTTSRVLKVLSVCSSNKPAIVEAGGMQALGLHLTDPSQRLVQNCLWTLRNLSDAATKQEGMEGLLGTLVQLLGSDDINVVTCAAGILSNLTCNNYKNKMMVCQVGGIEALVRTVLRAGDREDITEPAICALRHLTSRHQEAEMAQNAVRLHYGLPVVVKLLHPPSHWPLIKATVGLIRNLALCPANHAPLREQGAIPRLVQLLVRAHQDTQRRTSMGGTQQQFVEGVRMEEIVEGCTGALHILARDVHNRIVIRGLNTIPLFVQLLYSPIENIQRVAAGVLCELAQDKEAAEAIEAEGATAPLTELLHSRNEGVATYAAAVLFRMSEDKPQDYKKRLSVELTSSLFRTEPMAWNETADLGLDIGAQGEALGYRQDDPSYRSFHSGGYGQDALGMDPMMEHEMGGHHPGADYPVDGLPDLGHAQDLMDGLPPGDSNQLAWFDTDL
In words: Co-immunoprecipitation of cadherin derivatives with β-catenin in CHO cells. Format: binding. As to conditions: stably transfected CHO cells, FIG. 2B. From the text: Immunoblotting and immunoprecipitation: The following antibodies were used: polyclonal pan-cadherin or monoclonal anti cadherin (CH-19) and polyclonal anti β-catenin antibodies were from Sigma (Holon, Israel). Monoclonal anti β-catenin, 5H10 (from M. Wheelock), anti IL2Rα (from UBI), anti flag (M2, from IBI), anti HA (clone 12CA5, from Boehringer Mannheim, Germany), anti GFP (polyclonal, from Clontech, Palo Alto, Calif.), anti LEF-1 (polyclonal, kindly provided by Dr. R. Grosschedl). Secondary antibodies for Western blotting were goat anti rabbit or anti mouse conjugated to HRP (Amersham, Buckinghampshire, UK), and for immunofluorescence analysis the secondary antibodies were FITC-goat anti mouse (Cappel, USA) or rhodamine-anti rabbit antibodies (from Jackson Immuno-Research, West Grove, Pa.). Cells were harvested in Laemmli's sample buffer and equal amounts of total cell protein from the different clones, or from transient transfections, were separated by SDS-PAGE, electrotransferred to nitrocellulose and incubated with the different antibodies. For immunoprecipitation, cells were harvested in IP buffer (20 mM Tris pH 8.0, 1% Triton X-100, 140 mM NaCl, 10% glycerol, 1 mM EGTA, 1.5 mM MgCl2, 1 mM DTT, 1 mM sodium vanadate, and 50 μg/ml PMSF). […]

In assay [2] the test system is β-catenin-mediated transactivation. In words: TOPFLASH luciferase transactivation in SW480 cells (Example 1). Format: cell-based, human. As to conditions: SW480 cells transfected with TOPFLASH and N-cadherin derivative, FIG. 6A. The method, then:
(§2) Cell culture and transfections: CHO and SW480 human colon carcinoma cells were cultured in Dulbecco's modified Eagle's medium containing 10% fetal calf serum in an 8% CO2 incubator at 37° C. Transfections were performed using Lipofectamine (Gibco, BRL, USA) according to the manufacturer's instructions. Stably transfected CHO clones were generated by co-transfection with a plasmid encoding the puromycin resistance gene. Two days after transfection, cells were replated in the presence of 10 μg/ml puromycin (Sigma, Holon, Israel). Stable clones were isolated 2 weeks later and tested for the expression of the transgene by Western blot analysis.
(§3) Transactivation assays: CHO cells were transfected with TOPFLASH or FOPFLASH vectors (van de Wetering et al., 1997, ibid) and with pCDNA3 coding for β-galactosidase to normalize for transfection efficiency. The transfection mixture also contained either β-catenin, LEF-1 or cadherin derivatives in different combinations, as indicated. SW480 cells were transfected with TOPFLASH and cadherin derivatives. […] The reactions were stopped with 1 M Na2CO3 and the absorbance at 420 nm was determined. […] The luciferase reaction was monitored by a TD-20e luminometer (Turner, USA) and normalized for the β-galactosidase activity. […]

Assay [3] has as its target T1, β-catenin. The assay can be described thus: β-catenin level in CHO cells by Western blot. Type of assay: cell-based. As to conditions: stably transfected CHO cells, FIG. 2A. Here is the method:
as §2
Immunoblotting and immunoprecipitation: The following antibodies were used: polyclonal pan-cadherin or monoclonal anti cadherin (CH-19) and polyclonal anti β-catenin antibodies were from Sigma (Holon, Israel). Monoclonal anti β-catenin, 5H10 (from M. Wheelock), anti IL2Rα (from UBI), anti flag (M2, from IBI), anti HA (clone 12CA5, from Boehringer Mannheim, Germany), anti GFP (polyclonal, from Clontech, Palo Alto, Calif.), anti LEF-1 (polyclonal, kindly provided by Dr. R. Grosschedl). […]

For assay [4], the system named is β-catenin-dependent transactivation. In words: LEF-1 consensus luciferase transactivation in SW480 cells (Example 2). Type of assay: cell-based, human. As to conditions: co-transfection, FIG. 19A. Here is the method: (§4) Cell Culture and Transfections: Canine kidney epithelial cells MDCK, human fibrosarcoma HT1080, 293-T human embryonic kidney cells, Balb/C mouse 3T3 and human colon carcinoma SW480 cell lines were cultured in Dulbecco's modified Eagle's medium supplemented with 10% calf serum (Gibco, Grand Island, N.Y.) at 37° C. in the presence of 7% CO2. The human renal carcinoma cell line KTCTL60 was grown in RPMI medium and 10% calf serum. Cells were transiently transfected with the cDNA constructs described below, using Ca^2+-phosphate or lipofectamine (Gibco) and the expression of the transgene was assessed between 24 and 48 hours after transfection. In some experiments, the expression of the stably transfected NH2 terminus-deleted β-catenin (Δ57) was enhanced in HT1080 cells by overnight treatment with 2 mM sodium butyrate.
(§5) A plasmid encoding β-galactosidase (0.5 μg) was cotransfected to enable normalization for transfection efficiency. The relevant plasmid expressing catenin constructs (4.5 μg) was co-transfected with the reporter, or an empty expression vector was included. After 24-48 hours expression of the reporter (luciferase) and the control (β-galactosidase) genes were determined using enzyme assay systems from Promega (Madison, Wis.).

The next assay relates to CHO cells. The assay can be described thus: Immunofluorescence localization in CHO cells. Format: cell-based. As to conditions: stably transfected CHO cells, FIG. 4.
Description: as §1

The test system of assay [5] is LEF-1-driven transcription. In words: LEF-1 consensus (TOPFLASH) transactivation in 293 cells. Particulars: FIG. 18B. Format: cell-based, human. The method, then: as §4, §5
The subject of assay [6] is β-catenin-mediated transactivation. In words: TOPFLASH/FOPFLASH luciferase transactivation in CHO cells. Type of assay: cell-based. As to conditions: TOPFLASH with LEF-1 and β-catenin vs TOPFLASH and LEF-1 without β-catenin. Here is the method: as §2, §3

B1: N-cadherin: Full length chicken N-cadherin cloned into the pECE expression vector (protein)
chain: DWVIPPINLPENSRGPFPQELVRIRSDRDKSLSLRYSVTGPGADQPPTGIFIINPISGQLSVTKPLDREQIASFHLRAHAVDVNGNQVENPIDIVINVIDMNDNRPEFLHQVWNGTVPEGSKPGTYVMTVTAIDADDPNAQNGMLRYRILSQAPSSPSPNMFTINNETGDIITVAAGLDREKVQQYTLIIQATDMEGNPTYGLSNTATAVITVTDVNDNPPEFTAMTFYGEVPENRVDVIVANLTVTDKDQPHTPAWNARYQMTGGDPTGQFTILTDPNSNDGLVTVVKPIDFETNRMFVLTVAAENQVPLAKGIQHPPQSTATVSITVIDVNESPYFVPNPKLVRQEEGLLAGSMLTTFTARDPDRYMQQTSLRYSKLSDPANWLKIDPVNGQITTTAVLDRESIYVQNNMYNATFLASDNGIPPMSGTGTLQIYLLDINDNAPQVNPKEATTCETLQPNAINITAVDPDIDPNAGPFAFELPDSPPSIKRNWTIVRISGDHAQLSLRIRFLEAGIYDVPIVITDSGNPHASSTSVLKVKVCQCDINGDCTDVDRIVGAGLGTGAIIAILLCIIILLILVLMFVVWMKRRDKERQAKQLLIDPEDDVRDNILKYDEEGGGEEDQDYDLSQLQQPDTVEPDAIKPVGIRRLDERPIHAEPQYPVRSAAPHPGDIGDFINEGLKAADNDPTAPPYDSLLVFDYEGSGSTAGSLSSLNSSSSGGEQDYDYLNDWGPRFKKLADMYGGGDD
Turning to B1, the “subcellular localization of β-catenin” value in the assay with SW480 cells is reported as “binding of the endogenous β-catenin to the plasma membrane”. Also, the “interaction with β-catenin by co-immunoprecipitation” value with β-catenin [1] was “direct interaction”. Besides, the “inhibition of TOPFLASH reporter (luciferase) activity” value in assay [2] was “about 70%”. In the assay with β-catenin [3], the “effect on β-catenin levels” value is recorded as “increase in β-catenin levels”. The “effect on constitutive LEF-1 driven transcription” value in assay [4] is “effectively blocked”. Besides, the “subcellular localization of cadherin derivative and β-catenin” value in the assay with CHO cells is “mainly associated with cell-cell junctions”.

B2: β-catenin: transfected β-catenin cDNA construct (protein, UniProt P35222 2-781, looked up)
Catenin beta-1: ATQADLMELDMAMEPDRKAAVSHWQQQSYLDSGIHSGATTTAPSLSGKGNPEEEDVDTSQVLYEWEQGFSQSFTQEQVADIDGQYAMTRAQRVRAAMFPETLDEGMQIPSTQFDAAHPTNVQRLAEPSQMLKHAVVNLINYQDDAELATRAIPELTKLLNDEDQVVVNKAAVMVHQLSKKEASRHAIMRSPQMVSAIVRTMQNTNDVETARCTAGTLHNLSHHREGLLAIFKSGGIPALVKMLGSPVDSVLFYAITTLHNLLLHQEGAKMAVRLAGGLQKMVALLNKTNVKFLAITTDCLQILAYGNQESKLIILASGGPQALVNIMRTYTYEKLLWTTSRVLKVLSVCSSNKPAIVEAGGMQALGLHLTDPSQRLVQNCLWTLRNLSDAATKQEGMEGLLGTLVQLLGSDDINVVTCAAGILSNLTCNNYKNKMMVCQVGGIEALVRTVLRAGDREDITEPAICALRHLTSRHQEAEMAQNAVRLHYGLPVVVKLLHPPSHWPLIKATVGLIRNLALCPANHAPLREQGAIPRLVQLLVRAHQDTQRRTSMGGTQQQFVEGVRMEEIVEGCTGALHILARDVHNRIVIRGLNTIPLFVQLLYSPIENIQRVAAGVLCELAQDKEAAEAIEAEGATAPLTELLHSRNEGVATYAAAVLFRMSEDKPQDYKKRLSVELTSSLFRTEPMAWNETADLGLDIGAQGEPLGYRQDDPSYRSFHSGGYGQDALGMDPMMEHEMGGHHPGADYPVDGLPDLGHAQDLMDGLPPGDSNQLAWFDTDL
Consider B2, for which, in assay [5], the “activation of LEF-1-driven transcription” value is reported as “potent transcriptional co-activator”. Moreover, the “increase in luciferase activity” value in assay [6] is given as “about 5 fold”.

These data come from patent publication US20020045591A1, “Methods and therapeutic compositions for treating cancer” (priority 1998, published 2002).
